Literature values in paper PMC10764639.

Target: TLR4 (Homo sapiens) (UniProt O00206)
UniProt O00206, sequence (O00206 24-839): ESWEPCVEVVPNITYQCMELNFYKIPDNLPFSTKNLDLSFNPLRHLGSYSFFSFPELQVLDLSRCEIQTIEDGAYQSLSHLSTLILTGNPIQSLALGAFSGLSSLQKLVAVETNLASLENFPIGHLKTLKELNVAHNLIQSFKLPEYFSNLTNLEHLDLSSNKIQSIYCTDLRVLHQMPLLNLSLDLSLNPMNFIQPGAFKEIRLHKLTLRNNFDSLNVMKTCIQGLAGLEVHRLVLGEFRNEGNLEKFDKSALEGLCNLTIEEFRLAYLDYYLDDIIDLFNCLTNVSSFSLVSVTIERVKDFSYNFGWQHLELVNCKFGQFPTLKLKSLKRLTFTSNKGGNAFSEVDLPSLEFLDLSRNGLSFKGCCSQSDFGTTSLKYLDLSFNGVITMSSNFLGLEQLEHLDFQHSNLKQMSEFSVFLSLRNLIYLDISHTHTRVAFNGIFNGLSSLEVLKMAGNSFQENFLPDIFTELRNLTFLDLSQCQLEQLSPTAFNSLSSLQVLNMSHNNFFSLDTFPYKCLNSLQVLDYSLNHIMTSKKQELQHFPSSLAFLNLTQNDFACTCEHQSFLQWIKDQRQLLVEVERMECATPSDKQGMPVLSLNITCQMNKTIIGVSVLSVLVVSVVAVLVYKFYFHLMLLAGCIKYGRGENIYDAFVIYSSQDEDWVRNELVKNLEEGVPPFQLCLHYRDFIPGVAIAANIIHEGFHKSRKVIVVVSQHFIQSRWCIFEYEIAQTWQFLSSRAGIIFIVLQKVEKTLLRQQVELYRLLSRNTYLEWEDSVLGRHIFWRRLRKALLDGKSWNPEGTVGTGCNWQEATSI

HMGB1 (from UniProt P09429)
Kd: 12 nM
